{"source": "patent US6815187", "system": "syndecan-4 cytoplasmic tail peptide with a phosphorylated Ser (S4c-P)", "data": [{"substance": "Recombinant PKCα", "values": [{"measurement": "phosphorylation level of the PKCβ1 optimal substrate peptide by PKCα, in the presence of PIP2", "result": "the phosphorylation level of the substrate was similar to that obtained with PIP2 alone"}]}]}
